Reference: publication PMC7722734, “Reverse C-glycosidase reaction provides C-nucleotide building blocks of xenobiotic nucleic acids” (Nature Communications, 2020)

T1: Ribokinase (RbsK) (Escherichia coli, UniProt P0A9J6)
T1 construct: full length, N-terminal His6 tag (pET15b), expressed in E. coli BL21(DE3) pLys; 32,290 Da
T1 sequence (P0A9J6 1-309): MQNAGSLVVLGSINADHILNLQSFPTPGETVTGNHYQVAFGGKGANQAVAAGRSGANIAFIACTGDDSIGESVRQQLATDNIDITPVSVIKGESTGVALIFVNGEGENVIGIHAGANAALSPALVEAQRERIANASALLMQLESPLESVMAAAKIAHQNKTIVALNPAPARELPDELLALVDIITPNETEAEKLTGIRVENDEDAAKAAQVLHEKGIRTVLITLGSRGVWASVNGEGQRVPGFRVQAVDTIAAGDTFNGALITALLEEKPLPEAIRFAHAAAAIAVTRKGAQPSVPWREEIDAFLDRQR

B1: YeiN (ΨMP C-glycosidase; β-pseudouridine 5′-phosphate glycosidase) (Escherichia coli K-12) (protein)
chain: MSELKISPELLQISPEVQDALKNKKPVVALESTIISHGMPFPQNAQTAIEVEETIRKQGAVPATIAIIGGVMKVGLSKEEIELLGREGHNVTKVSRRDLPFVVAAGKNGATTVASTMIIAALAGIKVFATGGIGGVHRGAEHTFDISADLQELANTNVTVVCAGAKSILDLGLTTEYLETFGVPLIGYQTKALPAFFCRTSPFDVSIRLDSASEIARAMVVKWQSGLNGGLVVANPIPEQFAMPEHTINAAIDQAVAEAEAQGVIGKESTPFLLARVAELTGGDSLKSNIQLVFNNAILASEIAKEYQRLAG

Experiments:
[1] = target: T1, Ribokinase (RbsK); assay: phosphorylation, TLC; type: biochemical; conditions: 2 mM ATP with PEP and pyruvate kinase, 1 mM MgCl2, 10 mM HEPES pH 7.0, 37 °C
[2] = substrate: Cn1c(=O)cc[nH]c1=O; assay: purified protein; conditions: 5 mM D-Rib5P, 2 mM MnCl2, 50 mM HEPES pH 7.0, 37 °C, reverse (synthesis) direction
[3] = substrate: Nc1cc(=O)[nH]c(=O)[nH]1; assay: purified protein; conditions: 5 mM D-Rib5P, 2 mM MnCl2, 50 mM HEPES pH 7.0, 37 °C, reverse (synthesis) direction
[4] = substrate: O=c1[nH]ccc(=S)[nH]1; assay: purified protein; conditions: 5 mM D-Rib5P, 2 mM MnCl2, 50 mM HEPES pH 7.0, 37 °C, reverse (synthesis) direction
[5] = substrate: O=c1cc[nH]c(=S)[nH]1; assay: purified protein; conditions: 5 mM D-Rib5P, 2 mM MnCl2, 50 mM HEPES pH 7.0, 37 °C, reverse (synthesis) direction

Molecule	phosphorylation, TLC [1]	Km [2]	kcat [2]	Km [3]	kcat [3]	Km [4]	kcat [4]	Km [5]	kcat [5]
OC[C@H]1OC(O)C[C@@H]1O (stereo partly drawn) [D-dRib]	D-Rib, D-dRib, D-Xyl, D-Ara,2F-D-Rib, D-Glc were accepted	–	–	–	–	–	–	–	–
B1	–	1.25 ± 0.33 mM	0.46 ± 0.04 s⁻¹	3.23 ± 0.52 mM	0.01 ± 0.01 s⁻¹	1.98 ± 0.30 mM	0.01 ± 0.01 s⁻¹	7.4 ± 2.2 mM	0.43 ± 0.10 s⁻¹
